# B1: Pyrococcus furiosus triosephosphate isomerase (PfuTIM) (enzyme, UniProt P62002 1-228, looked up)
# chain: MAKLKEPIIAINFKTYIEATGKRALEIAKAAEKVYKETGVTIVVAPQLVDLRMIAESVEIPVFAQHIDPIKPGSHTGHVLPEAVKEAGAVGTLLNHSENRMILADLEAAIRRAEEVGLMTMVCSNNPAVSAAVAALNPDYVAVEPPELIGTGIPVSKAKPEVITNTVELVKKVNPEVKVLCGAGISTGEDVKKAIELGTVGVLLASGVTKAKDPEKAIWDLVSGIIKE
# notes: also called TPI; source: E. coli M15[pREP4], purified (Ni-NTA, gel filtration)
# Key:
# [1] = target: the molecule itself; experiment: SDS/PAGE (zymogram); 12% SDS/PAGE under standard conditions, gel copolymerised with CM-cellulose; residual oligomers resist SDS and boiling; bands identified as PfuTIM by in-gel digestion and MALDI-TOF MS
# [2] = target: the molecule itself; experiment: native gel or EMSA; native PAGE at 5, 7.5, 10, 12.5 and 15% acrylamide with HMW markers, Ferguson plot of molecular weight
# [3] = target: the molecule itself; experiment: AUC; sedimentation velocity, Tris buffer; data not shown; told in one sentence together with SDS/PAGE and gel filtration
# [4] = target: the molecule itself; experiment: SEC; gel filtration chromatography in phosphate buffer
# [5] = target: the molecule itself; experiment: AUC; sedimentation velocity, phosphate buffer; data not shown; told in one sentence together with SDS/PAGE and gel filtration
protein,measurement,setting,value
B1,stoichiometry N,[1],2
same,stoichiometry N,[2],8
same,stoichiometry N,[3],4
same,stoichiometry N,[4],6
same,stoichiometry N,[5],3
